{
  "source": "patent US20140079706A1",
  "about": "(published 2014)",
  "binders": {"B1": {"name": "Mab 2F11 (antibody, V domains shown)", "VH": "QVQLKESGPGLVAPSQSLSITCTVSGFSLTTYDISWIRQSPGKGLEWLGVIWTDGGTNYNSPFMSRLSIRKDNSKSQVFLKMNRLQTDDTAIYYCVRDQRLYFDVWGAGTTVTVSS", "VL": "NIVMTQSPKSMSMSVGERVTLNCKASEDVNTYVSWYQQQPEQSPKLLIYGASNRYTGVPDRFTGGGSTTDFTLTISSVQAEDLADYFCGQSFSYPTFGTGTKLEIK", "notes": "Murine monoclonal antibody from hybridoma; also called muMab 2F11"}, "B2": {"name": "Mab 2E10 (antibody, V domains shown)", "VH": "QVQLKESGPGLVAPSKSLSITCTVSGSSLDSFDISWIRQSPGKGLEWLGVIWTGGGTNYNSGFMSRLRITKDNSKSQVLLKMNSLQSDDTAIYYCVRDPRLYFDVWGAGTTVTVSS", "VL": "B1 VL with N22S, N30V, Q39K, E41D, G65S, T68A, F87Y, S91T", "notes": "Murine monoclonal antibody"}, "B3": {"name": "Mab 1G10 (antibody, V domains shown)", "VH": "B1 VH with Q1R, T31S, T53S, D54G, S68R, R70S, N73D, K75R, M82V, Q99L", "VL": "KIVMTQSPKSMSVSVGERVSLSCKASEDVGTYVSWYQQKPEQSPKLLIYGSSNRYTGVPDRFTGSGSATDFTLTISSVQAEDLADYSCGQSFTYPTFGTGTKLEIK", "notes": "Murine monoclonal antibody"}, "B4": {"name": "Mab 2H7 (antibody, V domains shown)", "VH": "B2 VH with S40P, T70S, L79F, N83S", "VL": "B1 VL with N22S, N30V, Q39K, G65S, T68A, V78I, F87Y, S91T", "notes": "Murine monoclonal antibody"}},
  "note": "Changes are numbered by the printed parent chain.",
  "data": [
    {"molecular_target": "CSF-1R on cynomolgous monocytes (cynomolgous)", "assay": "cell-based or functional assay", "units": {"% inhibition (of survival) = (100% - % survival), cynomolgous monocytes, 5 µg/ml antibody": "%", "% survival of cynomolgous monocytes at 5 µg/ml antibody (150 ng/ml huCSF-1, CellTiterGlo)": "%"}, "values": [
      {"binder": "B1", "% inhibition (of survival) = (100% - % survival), cynomolgous monocytes, 5 µg/ml antibody": 96, "% survival of cynomolgous monocytes at 5 µg/ml antibody (150 ng/ml huCSF-1, CellTiterGlo)": 4},
      {"binder": "B2", "% inhibition (of survival) = (100% - % survival), cynomolgous monocytes, 5 µg/ml antibody": 83, "% survival of cynomolgous monocytes at 5 µg/ml antibody (150 ng/ml huCSF-1, CellTiterGlo)": 17},
      {"binder": "B3", "% inhibition (of survival) = (100% - % survival), cynomolgous monocytes, 5 µg/ml antibody": 98, "% survival of cynomolgous monocytes at 5 µg/ml antibody (150 ng/ml huCSF-1, CellTiterGlo)": 2},
      {"binder": "B4", "% inhibition (of survival) = (100% - % survival), cynomolgous monocytes, 5 µg/ml antibody": 92, "% survival of cynomolgous monocytes at 5 µg/ml antibody (150 ng/ml huCSF-1, CellTiterGlo)": 8}
    ]},
    {"molecular_target": "T1, human CSF-1R fragment D1-D3 (human, UniProt P07333 20-311)", "T1 construct": "Subcloned into pCMV-presS-HisAvitag expression vector", "T1 sequence (P07333 20-311 limits assumed)": "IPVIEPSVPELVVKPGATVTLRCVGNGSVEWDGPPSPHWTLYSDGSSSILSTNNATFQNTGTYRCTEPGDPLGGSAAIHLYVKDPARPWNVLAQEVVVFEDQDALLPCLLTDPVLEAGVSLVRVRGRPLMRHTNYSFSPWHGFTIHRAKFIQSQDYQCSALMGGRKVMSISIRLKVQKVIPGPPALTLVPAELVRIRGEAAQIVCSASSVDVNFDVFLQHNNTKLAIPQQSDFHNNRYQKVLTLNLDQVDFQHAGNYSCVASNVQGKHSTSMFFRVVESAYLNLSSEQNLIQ", "assay": "SPR Biacore T100, 37°C; antibody captured, D1-D3 injected, single cycle kinetics", "procedure": "Antibodies against CSF-1R were captured via amine coupled capture molecules. Using the single cycle kinetics five increasing concentrations of human CSF-1R fragment D1-D3 (SEQ ID NO: 66) were injected. Human CSF-1R fragment D1-D3 was subcloned into pCMV-presS-HisAvitag expression vector.\nSingle Cycle Kinetics was measured at a flow rate of 30 μL/min by five consecutive injections of the analyte with concentrations, c=7.8, 31.25, 125 500 and 2000 nM, without regeneration. Each injection was 30 seconds long and followed by a dissociation phase of 120 Seconds for the first four injections, and finally 1200 seconds for the highest concentration (=last injection).\nKinetic parameters were calculated by using the usual double referencing (control reference: binding of analyte to capture molecule; Flow Cell: subdomain CSF-1R concentration “0” as Blank) and calculation with model ‘titration kinetics 1:1 binding with draft’.", "values": [
      {"binder": "B1", "binding result": "no binding (tested: up to 2000 nM D1-D3)"},
      {"binder": "B2", "binding result": "no binding (tested: up to 2000 nM D1-D3)"},
      {"binder": "B3", "binding result": "no binding (tested: up to 2000 nM D1-D3)"}
    ]}
  ]
}
